According to patent US20090238791A1 (INSTITUT NATIONAL DE LA SANTE ET DE LA RECHERCHE MEDICALE …, published 2009):
Each block holds one binder with its values, some of them ahead of it.

Legend:
[1] = biological target: T1, Recombinant human IL-15 (human, UniProt P40933 49-162); experiment: SPR, BIAcore 2000
T1 construct: also called rIL-15; human rIL-15
Procedure: (§1) These experiments were performed with a BIACore 2000 biosensor (BIACore, Uppsala, Sweden). rIL-15 was covalently linked to CM5 sensor chips, and the binding of increasing concentrations of sIL-15Rα-IL-2, sIL-15Rα-sushi-IL-2 or sIL-15Rα-sushi was monitored. Analysis of sensograms was performed using BIAlogue kinetics evaluation software.

[2] = biological target: T1, Recombinant human IL-15; experiment: cell-based or functional assay
[3] = biological target: T1, Recombinant human IL-15; experiment: Competition with 125I-rIL-15 (200 pM) binding to IL-15Rα on TF-1 cells
Procedure: The three soluble forms of IL-15Rα were tested for their ability to compete out the binding of radio-iodinated IL-15 to IL-15Rα expressed by the human cell line TF-1 which also expresses the IL-15Rγ chain, but not the IL-15Rβ chain (FIG. 1D).

[4] = biological target: T2, IL-15Rβ/γ complex (intermediate affinity receptor), human (human, UniProt P14784 27-551; P31785 23-369); experiment: 125I-sIL-15Rα-sushi saturation binding to TF-1β cells in the presence of 1 nM rIL-15
T2 construct: whole, on cells; Found on Mo-7 cells, which express IL-15Rβ/γ but not IL-15Rα; also called IL-15Rbeta/gamma; IL-2Rβ/γ
Procedure: Labeling with [¹²⁵I]-iodine of human rIL-15, sIL-15Rα-sushi and RLI fusion protein, and subsequent binding experiments were performed as described previously (19). For internalization, cells were equilibrated at 4° C. with labeled sIL-15Rα-sushi or RLI, and the temperature switched to 37° C. At different time intervals, two samples were washed and centrifuged. One of the cell pellets was treated with glycine-HCl buffer 0.2 M, pH 2.5, whereas the other was treated with PBS pH 7.4 at 4° C. for 5 min. After centrifugation, total ligand binding was determined from the pellet of the cells treated with PBS, whereas the membrane bound and internalized fractions were determined respectively from the supernatant and pellet of cells treated with acid pH.
As further shown in FIG. 6D, the radiolabeled sIL-15Rα-sushi was efficiently internalized. Radiolabeled RLI fusion protein also bound to TF1β cells (FIG. 6E). […] Once bound, the RLI was also efficiently internalized (FIG. 6F).

[5] = biological target: T1, Recombinant human IL-15; experiment: SPR, analysis of sensorgrams
Procedure: as §1

[6] = biological target: T1, Recombinant human IL-15; experiment: SPR

T1 sequence (P40933 49-162 limits assumed): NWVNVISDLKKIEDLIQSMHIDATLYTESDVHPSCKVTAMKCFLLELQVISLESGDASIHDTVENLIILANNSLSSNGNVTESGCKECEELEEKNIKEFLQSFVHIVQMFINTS
T2 sequence (P14784 whole entry, chain 1 of 2): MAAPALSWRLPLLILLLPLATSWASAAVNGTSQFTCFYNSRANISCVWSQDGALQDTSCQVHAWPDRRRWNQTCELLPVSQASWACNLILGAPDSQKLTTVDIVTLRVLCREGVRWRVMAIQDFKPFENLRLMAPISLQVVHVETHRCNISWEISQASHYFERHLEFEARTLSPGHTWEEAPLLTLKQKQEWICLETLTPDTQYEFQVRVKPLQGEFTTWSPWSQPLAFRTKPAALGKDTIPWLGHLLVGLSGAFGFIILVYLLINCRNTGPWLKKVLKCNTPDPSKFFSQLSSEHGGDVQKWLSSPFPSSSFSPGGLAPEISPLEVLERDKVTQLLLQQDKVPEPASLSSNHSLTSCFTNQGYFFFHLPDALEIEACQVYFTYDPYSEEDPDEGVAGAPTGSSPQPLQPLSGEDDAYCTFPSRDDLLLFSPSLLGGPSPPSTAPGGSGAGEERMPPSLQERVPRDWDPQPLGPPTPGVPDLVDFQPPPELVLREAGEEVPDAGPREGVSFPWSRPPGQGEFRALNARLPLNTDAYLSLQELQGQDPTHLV
T2 sequence (P31785 whole entry, chain 2 of 2): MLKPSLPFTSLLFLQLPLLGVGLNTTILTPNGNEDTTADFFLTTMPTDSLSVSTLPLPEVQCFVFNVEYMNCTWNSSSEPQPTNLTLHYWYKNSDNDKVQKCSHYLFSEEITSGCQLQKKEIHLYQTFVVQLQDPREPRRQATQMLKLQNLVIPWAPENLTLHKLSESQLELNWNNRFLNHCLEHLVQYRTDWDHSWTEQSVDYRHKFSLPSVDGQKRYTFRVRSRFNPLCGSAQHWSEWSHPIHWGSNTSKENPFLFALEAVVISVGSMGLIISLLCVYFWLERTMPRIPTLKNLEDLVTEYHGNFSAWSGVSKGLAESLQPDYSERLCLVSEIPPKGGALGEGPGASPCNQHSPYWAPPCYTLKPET

Kd [1]: 1.5 nM
koff [1]: 0.00038 s⁻¹
kon [1]: 250000 M⁻¹ s⁻¹
IC50 of the potentiation of Mo-7 proliferation driven by a fixed concentration of rIL-15 (1 nM) [2]: 3.5 nM
IC50 [3]: 1.3 nM
Kd [4]: 3.5 nM
B1: sIL-15Rα-sushi (receptor)
chain: ITCPPPMSVEHADIWVKSYSLYSRERYICNSGFKRKAGTSSLTECVLNKATNVAHWTTPSLKCIRD
notes: also called soluble sushi domain; not shown: Vector-encoded tag of pQE30; The protein was trapped on Ni-NTA agarose

Kd [5]: 0.102 nM
fold increase in binding affinity compared to sIL-15Rα-Sushi-IL-2 [6]: 4 fold
fold lower affinity than the full length soluble IL-15Rα [6]: 3 fold
B2: sIL-15Rα-Sushi+ (receptor)
chain: ITCPPPMSVEHADIWVKSYSLYSRERYICNSGFKRKAGTSSLTECVLNKATNVAHWTTPSLKCIRDPALVHQRPAPP
notes: Expressed in SF9 insect cells; No sentence names it for Sushi+; also called Sushi15+; Flag-Factor Xa tagged sIL-15Rα-Sushi+; not shown: Flag-Factor Xa tag
